# Reference: article PMC10433963, “Interactome Analysis Identifies MSMEI_3879 as a Substrate of Mycolicibacterium smegmatis ClpC1” (Microbiology Spectrum, 2023)
# B1: DnaJ1 (recombinant) (natural protein, M. smegmatis, UniProt A0QQD0 1-390, looked up)
# chain: MAQREWVEKDFYKELGVSSDASADEIKKAYRKLAAELHPDRNSDPGAAERFKAVSEANSVLSDPAKRKEYDETRRLFAGGFGRRFNQGGGGFGGGFGSDGVEFNLGDLFDAAGQTGGANIGDLFGGLFGRGPQQRPSRPRRGNDLETETELSFLEATKGVAMPLRLTSPAPCTNCHGSGARPGTSPKVCPSCNGSGVISRNQGAFGFSEPCTECRGSGSIIEHPCQECRGTGVTTRTRTINVRIPPGVEDGQRIRLAGQGEAGLRGAPSGDLYVTVHVRPDKVFGRDGDDLTVTVPVSFHELALGTTLSVPTLDGKVGVRVPKGTSDGRILRVRGRGVPKRSGGHGDLLVTVKVAVPPNLEGEAAEALEAYAKAERASGFDPRAGWAGNV
# notes: H7-SUMO tags were removed with Ulp1 or left intact for microscale thermophoresis; also called Chaperone protein DnaJ1
# B2: XRE (recombinant) (natural protein, M. smegmatis, UniProt A0QQY3 1-142, looked up)
# chain: MAQDENLAAVVSNAAQDIGSFIRAQREAAQVSVRQLAEKAGVSNPYLSQIERGLRKPSADVLNQIAKALRVSAEVLYVRAGILEPSEPSEVRDAIVNDVSITERQKQVLLDIYTSFRQQNEAAGEPEGAAVIPSPDEEPATD
# notes: H7-SUMO tags were removed with Ulp1 or left intact for microscale thermophoresis; also called Transcriptional regulator, XRE family protein
# B3: Magnesium chelatase (recombinant) (natural protein, M. smegmatis, UniProt A0R3L1 1-461, looked up)
# chain: MVSQPKDLPRTVGELRASGHRERGVKAEIRENLLAALAERRDVWPGILGFEDTVIPQLERALIAGHDVVLLGERGQGKTRLLRALTGLLDEWTPVIAGSELGEHPYSPITPESIRRAADSGDDLPVEWRHRSERYTEKLATPDTSVADLVGDIDPIKVAEGRSLGDPETIAYGLIPRAHRGIVAVNELPDLAERIQVAMLNVMEERDIQVRGYTLRLPLDVLVVASANPEDYTNRGRIITPLKDRFGAEIRTHYPLELEAEVGVIRQEAELAAEVPEYLLAVLARFARNLRESNSIDQRSGVSARFAIAAAETVAASARHRAAILGEDDPVARVVDLGTVIDVLRGKLEFETGEEGREQAVLEHLLRRATADTAQRLLGGIDVGPLVAAIEEGSPVTTGERVSAKDVVAALPDLPAIDAIAHRLNAVSVGQRAAAIELALEALYLAKRIDKVSGEGETVYG
# notes: H7-SUMO tags were removed with Ulp1 or left intact for microscale thermophoresis; also called Mg chelatase
# Molecular target: T1, ^H7-SUMOClpC1^FLAG (recombinant ClpC1) (M. smegmatis, UniProt A0R574 1-848)
# T1 construct: ClpC1 unfoldase, M. smegmatis; used at 0.1 uM (hexamer) in microscale thermophoresis; In the degradation assays (functional rows) ClpC1 stood with ClpP1P2 and its H7-SUMO tag may have been removed; not shown: H7-SUMO, N-terminal, kept; FLAG, C-terminal, kept
# Assay: MST; Monolith NT.115; 0.1 uM ^H7-SUMOClpC1^FLAG (hexamer) with 0.1 uM His Lite OG488-Tris-NTA-Ni dye, partner titrated; fit to a Hill-form binding equation; apparent (Kapp)
# Conditions: both partners purified
# T1 sequence (A0R574 whole entry): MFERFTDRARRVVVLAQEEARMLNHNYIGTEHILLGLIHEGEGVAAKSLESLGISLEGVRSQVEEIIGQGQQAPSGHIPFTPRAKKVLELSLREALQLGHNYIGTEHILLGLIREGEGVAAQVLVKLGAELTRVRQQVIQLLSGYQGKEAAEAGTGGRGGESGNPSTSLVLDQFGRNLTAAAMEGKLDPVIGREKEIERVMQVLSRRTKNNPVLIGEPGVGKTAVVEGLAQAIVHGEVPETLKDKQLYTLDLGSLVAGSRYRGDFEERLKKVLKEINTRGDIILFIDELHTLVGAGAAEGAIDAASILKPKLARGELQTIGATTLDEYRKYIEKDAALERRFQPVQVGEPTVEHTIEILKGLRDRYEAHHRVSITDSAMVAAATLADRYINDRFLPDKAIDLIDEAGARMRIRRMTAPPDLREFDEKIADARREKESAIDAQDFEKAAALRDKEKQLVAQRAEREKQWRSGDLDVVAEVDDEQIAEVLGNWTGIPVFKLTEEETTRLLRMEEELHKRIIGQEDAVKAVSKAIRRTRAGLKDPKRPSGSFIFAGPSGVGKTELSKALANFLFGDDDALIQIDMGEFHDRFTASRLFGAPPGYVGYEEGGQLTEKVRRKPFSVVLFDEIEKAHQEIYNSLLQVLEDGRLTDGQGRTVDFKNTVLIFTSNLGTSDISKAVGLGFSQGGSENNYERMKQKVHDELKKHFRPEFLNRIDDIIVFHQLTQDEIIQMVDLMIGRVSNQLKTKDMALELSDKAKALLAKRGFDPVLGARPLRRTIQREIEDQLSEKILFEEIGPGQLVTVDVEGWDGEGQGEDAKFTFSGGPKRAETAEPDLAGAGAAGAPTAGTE
row,Binder,binding result
1,B1,binds
2,B2,binds
3,B3,binds
